Target: the molecule itself
Experiment: native gel or EMSA; pore-limited native PAGE of purified recombinant A2M; dimers that failed to tetramerize were removed during purification (Fig. S2)

B1: tabula rasa A2M (bait region replaced by 13 Gly-Gly-Ser repeats) (natural protein, human)
chain: SVSGKPQYMVLVPSLLHTETTEKGCVLLSYLNETVTVSASLESVRGNRSLFTDLEAENDVLHCVAFAVPKSSSNEEVMFLTVQVKGPTQEFKKRTTVMVKNEDSLVFVQTDKSIYKPGQTVKFRVVSMDENFHPLNELIPLVYIQDPKGNRIAQWQSFQLEGGLKQFSFPLSSEPFQGSYKVVVQKKSGGRTEHPFTVEEFVLPKFEVQVTVPKIITILEEEMNVSVCGLYTYGKPVPGHVTVSICRKYSDASDCHGEDSQAFCEKFSGQLNSHGCFYQQVKTKVFQLKRKEYEMKLHTEAQIQEEGTVVELTGRQSSEITRTITKLSFVKVDSHFRQGIPFFGQVRLVDGKGVPIPNKVIFIRGNEANYYSNATTDEHGLVQFSINTTNVMGTSLTVRVNYKDRSPCYGYQWVSEEHEEAHHTAYLVFSPSKSFVHLEPMSHELPCGHTQTVQAHYILNGGTLLGLKKLSFYYLIMAKGGIVRTGTHGLLVKQEDMKGHFSISIPVKSDIAPVARLLIYAVLPTGDVIGDSAKYDVENCLANKVDLSFSPSQSLPASHAHLRVTAAPQSVCALRAVDQSVLLMKPDAELSASSVYNLLPEKDLTGFPGPLNDQDNEDCINRHNVYINGITYTPVSSTNEKDMYSFLEDMGLKAFTNSKIRKPKMCGGSGGSGGSGGSGGSGGSGGSGGSGGSGGSGGSGGSGGSETVRKYFPETWIWDLVVVNSAGVAEVGVTVPDTITEWKAGAFCLSEDAGLGISSTASLRAFQPFFVELTMPYSVIRGEAFTLKATVLNYLPKCIRVSVQLEASPAFLAVPVEKEQAPHCICANGRQTVSWAVTPKSLGNVNFTVSAEALESQELCGTEVPSVPEHGRKDTVIKPLLVEPEGLEKETTFNSLLCPSGGEVSEELSLKLPPNVVEESARASVSVLGDILGSAMQNTQNLLQMPYGCGEQNMVLFAPNIYVLDYLNETQQLTPEIKSKAIGYLNTGYQRQLNYKHYDGSYSTFGERYGRNQGNTWLTAFVLKTFAQARAYIFIDEAHITQALIWLSQRQKDNGCFRSSGSLLNNAIKGGVEDEVTLSAYITIALLEIPLTVTHPVVRNALFCLESAWKTAQEGDHGSHVYTKALLAYAFALAGNQDKRKEVLKSLNEEAVKKDNSVHWERPQKPKAPVGHFYEPQAPSAEVEMTSYVLLAYLTAQPAPTSEDLTSATNIVKWITKQQNAQGGFSSTQDTVVALHALSKYGAATFTRTGKAAQVTIQSSGTFSSKFQVDNNNRLLLQQVSLPELPGEYSMKVTGEGCVYLQTSLKYNILPEKEEFPFALGVQTLPQTCDEPKAHTSFQISLSVSYTGSRSASNMAIVDVKMVSGFIPLKPTVKMLERSNHVSRTEVSSNHVLIYLDKVSNQTLSLFFTVLQDVPVRDLKPAIVKVYDYYETDEFAIAEYNAPCSKDLGNA
notes: human alpha2-macroglobulin from its N-terminus to residue 689, the residue before the bait region (residues 690-728); tabula rasa bait region: 13 Gly-Gly-Ser repeats in place of the 39 residues 690-728, told in words; human alpha2-macroglobulin from residue 729, the residue after the bait region, to the C-terminus; Dimers removed during purification; also called A2M TR; A2M tabula rasa
- stoichiometry N: 4
